Results published in patent CN108727490A (UNIV TSINGHUA; GUANGZHOU 8TH PEOPLES HOSPITAL, dated 2018).

Biological target: T1, E-His6融合蛋白 (寨卡病毒 (Zika virus), UniProt A0A024B7W1 292-693)
T1 construct: also called 寨卡病毒的E蛋白; E蛋白
Assay: ELISA screen of memory B cell culture supernatants on coated E-His6 fusion protein; the antibody genes were cloned from positive wells

T1 sequence (A0A024B7W1 292-693, tags left off): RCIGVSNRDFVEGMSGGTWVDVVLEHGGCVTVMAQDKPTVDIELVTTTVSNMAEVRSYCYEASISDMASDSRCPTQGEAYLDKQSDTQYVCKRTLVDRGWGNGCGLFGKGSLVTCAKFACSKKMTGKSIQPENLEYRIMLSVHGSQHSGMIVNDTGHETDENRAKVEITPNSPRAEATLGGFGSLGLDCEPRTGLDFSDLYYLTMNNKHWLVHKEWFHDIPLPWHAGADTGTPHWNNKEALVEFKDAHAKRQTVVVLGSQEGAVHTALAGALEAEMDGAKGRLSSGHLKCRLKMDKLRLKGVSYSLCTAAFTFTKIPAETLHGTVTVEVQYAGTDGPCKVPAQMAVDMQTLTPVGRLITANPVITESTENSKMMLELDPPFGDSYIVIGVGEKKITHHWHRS

B1: 单克隆抗体ZK2B10 (antibody, human IgG1, lambda, V domains shown)
VH: EVQLVQSGAEVKKPGASVKVSCKASGYTFTSGHTFPSYDINWVRQATGQGLEWMGWMNPNRGNTGYAQKFQGRVTMTRNTSINTAYMELSSLRSEDTAVYYCARVRSGTNYGSYYYYYYGMDVWGQGTTVTVSS
VL: SYELTQPPSASGTPGQRVTISCSGSSSNIGNNYVHWYQQLPGSAPKLLIYRNNQRPSGVPDRFSGSKSGTSGSLAISGLRSEDEADYYCASWDDSLSGHWVFGGGTKVTVLG
notes: also called ZK2B10抗体; IgG抗体
binding result: binds
